The supplement of paper PMC7877785
± gives the uncertainty stated by the source.

Test: self-splicing fitness, log relative to wild type (ln ratio); higher = more splicing; Tetrahymena group I intron in knt gene, E. coli kanamycin selection, DiMSum; sequences stand for … in CUCUCU…GGAGGGAAAAGUUAUCAGGCAUGCACCUGGUAGCUAGUCUUUAAACCAAUAGAUUGCAUCGGUUUAAAAGGCAAGACCGUCAAAUUGCGGGAAAGGGGUCAACAGCCGUUCAGUACCAAGUCUCAGGGGAAACUUUGAGAUGGCCUUGCAAAGGGUAUGGUAAUAAGCUGACGGACAUGGUCCUAACCACGCAGCCAAGUCCUAAGUCAACAGAUCUUCUGUUGAUAUGGAUGCAGUUCACAGACUAAAUGUCGGUCGGGGAAGAUGUAUUCUUCUCAUAAGAUAUAGUCGGACCUCUCCUUAAUGGGAGCUAGCGGAUGAAGUGAUGCAACACUGGAGCCGCUGGGAACUAAUUUGUAUGCGAAAGUAUAUUGAUUAGUUUUGGAGUACUCGUGGUCG
In short: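 DiMSum derived fitness as the error-weighted combination of fold changes across replicates, kanamycin versus no kanamycin, normalised to wild type. E. coli BL21(DE3) held the library, which randomised all eight P1ex-region intron nucleotides within the knt kanamycin-resistance gene on pET-22b(+). Six replicate transformations grew overnight at 37°C or 30°C on LB agar with or without 25 μg/mL kanamycin, also containing 100 μg/mL carbenicillin, 50 μM IPTG and 0.2% rhamnose, and pooled colonies were amplicon-sequenced on an Illumina HiSeq 2500.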

| Sequence | self-splicing fitness (ln) (30 °C) | self-splicing fitness (ln) (37 °C) |
| --- | --- | --- |
| AUAAAGCAAUAUUACGCUGC | -3.15 ± 0.23 | -2.59 ± 0.33 |
| AUAAAGCAAUAUUACGCUGG | -1.43 ± 0.088 | -0.293 ± 0.13 |
| AUAAAGCAAUAUUACGGAAU | -1.16 ± 0.077 | -0.475 ± 0.1 |
| AUAAAGCAAUAUUACGGCAA | 0.284 ± 0.085 | -0.0372 ± 0.11 |
| AUAAAGCAAUAUUACGGCUG | 0.334 ± 0.069 | 0.483 ± 0.1 |
| AUAAAGCAAUAUUACGGGGC | -3.6 ± 0.26 | -1.97 ± 0.22 |
| AUAAAGCAAUAUUACGGUCC | -0.883 ± 0.14 | -0.458 ± 0.17 |
| AUAAAGCAAUAUUACGGUUA | 0.442 ± 0.078 | 0.534 ± 0.09 |
| AUAAAGCAAUAUUACGUACU | 0.123 ± 0.081 | 0.445 ± 0.095 |
| AUAAAGCAAUAUUACGUAGG | -2.93 ± 0.12 | -1.51 ± 0.15 |
| AUAAAGCAAUAUUACGUCCC | -0.201 ± 0.097 | -0.0866 ± 0.13 |
| AUAAAGCAAUAUUACGUUCA | 0.0367 ± 0.069 | 0.0639 ± 0.1 |
| AUACAGCAAUAUUACGAAAU | -1.44 ± 0.087 | -0.906 ± 0.11 |
| AUACAGCAAUAUUACGAGAA | -2.21 ± 0.25 | -1.79 ± 0.16 |
| AUACAGCAAUAUUACGAUUA | -1.18 ± 0.11 | -0.625 ± 0.11 |
| AUACAGCAAUAUUACGCAGA | -1.49 ± 0.13 | -1.51 ± 0.1 |
| AUACAGCAAUAUUACGCCUG | -1.94 ± 0.12 | 0.29 ± 0.13 |
| AUACAGCAAUAUUACGCGAU | -3.88 ± 0.33 | -1.94 ± 0.21 |
| AUACAGCAAUAUUACGCGCA | -0.623 ± 0.078 | -0.0747 ± 0.11 |
| AUACAGCAAUAUUACGCGCC | -1.06 ± 0.12 | -0.66 ± 0.16 |
| AUACAGCAAUAUUACGCGCU | -0.631 ± 0.094 | 0.0173 ± 0.12 |
| AUACAGCAAUAUUACGCUCG | -0.288 ± 0.12 | -0.205 ± 0.15 |
| AUACAGCAAUAUUACGCUCU | 0.359 ± 0.13 | 0.358 ± 0.16 |
| AUACAGCAAUAUUACGCUGC | -2.38 ± 0.18 | -3.02 ± 0.29 |

| Sequence | self-splicing fitness (ln) (30 °C) | self-splicing fitness (ln) (37 °C) |
| --- | --- | --- |
| AUACAGCAAUAUUACGGACU | -0.732 ± 0.06 | 0.141 ± 0.09 |
| AUACAGCAAUAUUACGGCAG | -2.21 ± 0.072 | -0.564 ± 0.077 |
| AUACAGCAAUAUUACGGGAG | -3.35 ± 0.15 | -2.12 ± 0.13 |
| AUACAGCAAUAUUACGGGCG | -1.25 ± 0.077 | -1.18 ± 0.11 |
| AUACAGCAAUAUUACGGUUC | -2.89 ± 0.12 | -1.2 ± 0.12 |
| AUACAGCAAUAUUACGUAGG | -2.13 ± 0.11 | -0.536 ± 0.12 |
| AUACAGCAAUAUUACGUCCA | -1.17 ± 0.08 | -0.0617 ± 0.086 |
| AUACAGCAAUAUUACGUGCC | -1.16 ± 0.078 | -0.689 ± 0.11 |
| AUACAGCAAUAUUACGUGUU | -3.98 ± 0.21 | -2.64 ± 0.22 |
| AUACAGCAAUAUUACGUUCA | -0.878 ± 0.07 | -0.304 ± 0.071 |
| AUACAGCAAUAUUACGUUCG | -1.69 ± 0.071 | -1.15 ± 0.093 |
| AUAGAGCAAUAUUACGAAGC | -2.7 ± 0.28 | -0.819 ± 0.35 |
| AUAGAGCAAUAUUACGACGC | -0.187 ± 0.14 | -0.765 ± 0.17 |
| AUAGAGCAAUAUUACGACUU | -0.0326 ± 0.11 | 0.17 ± 0.11 |
| AUAGAGCAAUAUUACGCCCA | -1.09 ± 0.29 | -1.03 ± 0.48 |
| AUAGAGCAAUAUUACGCCUG | -0.827 ± 0.092 | 0.302 ± 0.15 |
| AUAGAGCAAUAUUACGCGCA | -0.749 ± 0.14 | -0.253 ± 0.17 |
| AUAGAGCAAUAUUACGGACG | -2.69 ± 0.22 | -0.981 ± 0.19 |
| AUAGAGCAAUAUUACGGAGC | – | -2.05 ± 0.38 |
| AUAGAGCAAUAUUACGGCGC | -1.36 ± 0.096 | -0.282 ± 0.14 |
| AUAGAGCAAUAUUACGGCUG | -1.13 ± 0.13 | 0.795 ± 0.2 |
| AUAGAGCAAUAUUACGGGUG | -3.22 ± 0.24 | -2.58 ± 0.26 |
| AUAGAGCAAUAUUACGGUCU | -1.2 ± 0.11 | -0.695 ± 0.15 |
| AUAGAGCAAUAUUACGUUGA | -1.89 ± 0.12 | -1.4 ± 0.12 |

| Sequence | self-splicing fitness (ln) (30 °C) | self-splicing fitness (ln) (37 °C) |
| --- | --- | --- |
| AUAUAGCAAUAUUACGAAAA | -2.4 ± 0.41 | -1.72 ± 0.34 |
| AUAUAGCAAUAUUACGAACU | -1.38 ± 0.22 | 0.111 ± 0.21 |
| AUAUAGCAAUAUUACGAAUG | -1.77 ± 0.16 | -1.54 ± 0.18 |
| AUAUAGCAAUAUUACGACCA | -1.05 ± 0.32 | 0.391 ± 0.26 |
| AUAUAGCAAUAUUACGACUC | -0.877 ± 0.15 | -0.341 ± 0.2 |
| AUAUAGCAAUAUUACGAUCA | -1.4 ± 0.16 | -0.365 ± 0.22 |
| AUAUAGCAAUAUUACGAUCU | 0.333 ± 0.15 | 0.288 ± 0.13 |
| AUAUAGCAAUAUUACGAUGC | -2.89 ± 0.27 | -0.335 ± 0.22 |
| AUAUAGCAAUAUUACGCAUC | -2.63 ± 0.22 | -1.15 ± 0.26 |
| AUAUAGCAAUAUUACGGCGA | -0.84 ± 0.12 | -0.69 ± 0.13 |
| AUAUAGCAAUAUUACGGCUA | -0.422 ± 0.1 | -0.506 ± 0.12 |
| AUAUAGCAAUAUUACGGGGC | -3.4 ± 0.43 | -2.48 ± 0.32 |
| AUAUAGCAAUAUUACGGUGG | -3.4 ± 0.22 | -2.44 ± 0.25 |
| AUAUAGCAAUAUUACGUACA | -1.07 ± 0.14 | -0.785 ± 0.16 |
| AUAUAGCAAUAUUACGUCAA | -2.93 ± 0.25 | -2.06 ± 0.2 |
| AUAUAGCAAUAUUACGUCAG | -3.76 ± 0.31 | -1.62 ± 0.25 |
| AUAUAGCAAUAUUACGUCCC | -1.01 ± 0.17 | 0.139 ± 0.32 |
| AUAUAGCAAUAUUACGUCUU | -0.0336 ± 0.1 | -0.378 ± 0.1 |
| AUAUAGCAAUAUUACGUGCU | -1.24 ± 0.092 | -0.807 ± 0.13 |
| AUAUAGCAAUAUUACGUGUC | -4.06 ± 0.34 | -1.88 ± 0.32 |
| AUAUAGCAAUAUUACGUUGG | -4.08 ± 0.42 | -2.04 ± 0.26 |
| AUCAAGCAAUAUUACGAAGC | -3.81 ± 0.43 | – |
| AUCAAGCAAUAUUACGAAUG | -3.16 ± 0.13 | -0.57 ± 0.1 |
| AUCAAGCAAUAUUACGAGAU | -2.81 ± 0.16 | -2.67 ± 0.21 |

| Sequence | self-splicing fitness (ln) (30 °C) | self-splicing fitness (ln) (37 °C) |
| --- | --- | --- |
| AUCAAGCAAUAUUACGAGGA | -2.51 ± 0.19 | -2.65 ± 0.26 |
| AUCAAGCAAUAUUACGAGGC | -3.86 ± 0.21 | -2.57 ± 0.2 |
| AUCAAGCAAUAUUACGAUGU | -0.836 ± 0.083 | -0.217 ± 0.091 |
| AUCAAGCAAUAUUACGAUUG | -4.34 ± 0.3 | -3.41 ± 0.3 |
| AUCAAGCAAUAUUACGCACU | -0.00274 ± 0.081 | 0.0749 ± 0.097 |
| AUCAAGCAAUAUUACGCAGA | -2.21 ± 0.18 | -2.52 ± 0.23 |
| AUCAAGCAAUAUUACGCAGU | -2.61 ± 0.14 | -1.71 ± 0.15 |
| AUCAAGCAAUAUUACGCCCA | -0.266 ± 0.15 | 0.0648 ± 0.2 |
| AUCAAGCAAUAUUACGCCCU | 0.228 ± 0.14 | 0.617 ± 0.18 |
| AUCAAGCAAUAUUACGCCGG | -1.22 ± 0.19 | 0.522 ± 0.2 |
| AUCAAGCAAUAUUACGCGAA | -0.924 ± 0.094 | -1.22 ± 0.12 |
| AUCAAGCAAUAUUACGCGCG | -1.01 ± 0.094 | -0.0559 ± 0.13 |
| AUCAAGCAAUAUUACGCGGA | -2.07 ± 0.1 | -1.94 ± 0.088 |
| AUCAAGCAAUAUUACGCGGC | -3.39 ± 0.33 | -1.98 ± 0.29 |
| AUCAAGCAAUAUUACGCUUA | -1.75 ± 0.1 | -0.843 ± 0.1 |
| AUCAAGCAAUAUUACGGACG | -0.832 ± 0.083 | 0.117 ± 0.11 |
| AUCAAGCAAUAUUACGGACU | -0.672 ± 0.076 | 0.456 ± 0.096 |
| AUCAAGCAAUAUUACGGAGU | -2.18 ± 0.095 | -0.783 ± 0.11 |
| AUCAAGCAAUAUUACGGCAG | -1.58 ± 0.085 | -1.55 ± 0.12 |
| AUCAAGCAAUAUUACGGCCG | -0.0854 ± 0.092 | -0.00151 ± 0.15 |
| AUCAAGCAAUAUUACGGCGU | 0.235 ± 0.1 | 0.219 ± 0.11 |
| AUCAAGCAAUAUUACGGGCG | -1.34 ± 0.06 | -0.467 ± 0.079 |
| AUCAAGCAAUAUUACGGGGC | -3.13 ± 0.24 | -3.01 ± 0.26 |
